# Results as given in patent US9968935B2, “Devices for cell assays” (Platypus Technologies, LLC, priority 2007, dated 2018).
# System: HT-1080 cells
# Assay: Adherence and morphology of HT-1080 cells on photoimmobilized hyaluronic acid, before and after hyaluronidase treatment
# Assay type: cell-based
# Conditions: 30 minute treatment, 50 microliters of 1000 U/ml, wells not phototreated with HA
# Description: This example describes the ability to block adhesion of HT-1080 cells to a surface coated with hyaluronic acid (HA). The HA was functionalized with a photoactive linker and immobilized to the bottom of a well in a tissue culture plate. The material was prepared by reacting the carboxyl group of HA disaccharides with the amine group of a heterobifunctional crosslinker (4-[p-azidosalicylamido]butylamine, ASBA) via carbodiimide chemistry. The other end of the ASBA crosslinker contains a photoactive group, so this reaction renders the HA photoactive. […] Briefly, the HA was dissolved in MES buffer and reacted with EDC and Sulfo-NHS for 15 min at room temperature. The pH of the buffer was adjusted to ca. 7.0 with concentrated PBS and ASBA was added to the solution and allowed to react for 2 h at room temperature in a light-proof vial. The reaction was quenched using 50 mM Tris. Unreacted components and reaction by-products were removed via dialysis against diH2O using a 3,000 MW exclusion. The reaction product was protected from exposure to light during lyophilization. Three species of photoactive HA were prepared that varied according to the molecular weight of the HA chains: low, medium and high MW chains.
# The lyophilized, photoactive HA was reconstituted in PBS and adjusted to a working concentration of 0.2 mg/ml. […]
substance,measurement,setting,value
Hyaluronidase,"effect of hyaluronidase on cells attached to control wells without HA (morphology, toxicity)",,did not have a significant effect
same,"effect of hyaluronidase on cells attached to control wells without HA (morphology, toxicity)",listed as HA-ase,does not cause any gross morphological changes or have any toxic effects
